Assay results: patent US20200199241A1 (Chugai, published 2020)
Numbering of substitutions follows the chain as printed. Names may count otherwise. Where two headings read alike, the source gives them in different places.

Assays:
human FcγRIa [1] = target: T1, human FcγRIa (human, UniProt P12314 16-292, limits assumed); test: SPR (Biacore T100/T200): FcγR injected over the antibody held by human FcRn immobilised on a CM4 chip (simultaneous binding), pH 7.4, 25 C
T1 construct: also called hFcgRIa; hFcgRI

human FcγRIIb [2] = target: T2, human FcγRIIb (human, UniProt P31994 43-217, limits assumed); test: as above
T2 construct: also called hFcgRIIb; FcγIIB
T2 sequence: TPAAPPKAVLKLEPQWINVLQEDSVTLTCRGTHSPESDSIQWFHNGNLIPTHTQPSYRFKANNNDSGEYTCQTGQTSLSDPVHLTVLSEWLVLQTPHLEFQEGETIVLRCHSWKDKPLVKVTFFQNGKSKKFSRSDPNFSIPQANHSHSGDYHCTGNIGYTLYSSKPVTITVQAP

mouse FcγRI [3] = target: T3, mouse FcγRI (mouse, UniProt P26151 25-297); test: as above
T3 construct: bought; also called mFcgRI; mFcgR 1
T3 sequence (looked up): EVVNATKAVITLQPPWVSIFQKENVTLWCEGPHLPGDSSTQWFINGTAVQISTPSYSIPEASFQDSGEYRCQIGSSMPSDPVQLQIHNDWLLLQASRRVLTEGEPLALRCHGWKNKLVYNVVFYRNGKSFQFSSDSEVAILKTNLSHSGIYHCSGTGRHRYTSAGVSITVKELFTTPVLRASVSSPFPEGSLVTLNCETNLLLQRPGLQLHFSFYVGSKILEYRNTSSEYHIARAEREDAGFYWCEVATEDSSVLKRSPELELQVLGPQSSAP

mouse FcγRIIb [4] = target: T4, mouse FcγRIIb (mouse, UniProt P08101 30-207, limits assumed); test: as above
T4 construct: bought; also called mFcgRIIb; mFcgR IIb
T4 sequence (looked up): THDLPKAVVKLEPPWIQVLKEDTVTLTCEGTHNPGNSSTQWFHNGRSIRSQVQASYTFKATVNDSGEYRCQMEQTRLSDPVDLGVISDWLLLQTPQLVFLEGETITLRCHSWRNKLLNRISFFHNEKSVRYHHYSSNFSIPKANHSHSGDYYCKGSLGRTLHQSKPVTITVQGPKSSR

mouse FcγRIII [5] = target: T5, mouse FcγRIII (mouse, UniProt P08508 31-215); test: as above
T5 construct: bought; also called mFcgRIII; mFcgR III
T5 sequence (looked up): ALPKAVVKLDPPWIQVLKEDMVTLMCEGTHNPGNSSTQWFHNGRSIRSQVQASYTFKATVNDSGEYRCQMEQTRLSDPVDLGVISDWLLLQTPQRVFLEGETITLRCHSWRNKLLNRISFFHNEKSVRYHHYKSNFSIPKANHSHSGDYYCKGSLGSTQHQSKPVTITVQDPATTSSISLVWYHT

mouse FcγRIV [6] = target: T6, mouse FcγRIV (mouse, UniProt A0A0B4J1G0 21-203); test: as above
T6 construct: bought; also called mFcgRIV; mFcgR IV; the vendor's purification tag not given
T6 sequence: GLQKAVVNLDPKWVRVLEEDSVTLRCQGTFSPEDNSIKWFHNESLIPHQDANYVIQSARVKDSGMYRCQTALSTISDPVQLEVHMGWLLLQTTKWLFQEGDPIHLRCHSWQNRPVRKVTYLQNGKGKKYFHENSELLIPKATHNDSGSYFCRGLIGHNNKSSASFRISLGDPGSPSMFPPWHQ

mouse FcγRI [7] = target: T3, mouse FcγRI; test: SPR (Biacore T100/T200): FcγR injected over the antibody held by mouse FcRn immobilised on a CM4 chip, pH 7.4, 25 C
mouse FcγRIV [8] = target: T6, mouse FcγRIV; test: as above
mouse FcγRIIb [9] = target: T4, mouse FcγRIIb; test: SPR (Biacore T100/T200): FcγR injected over the antibody held by mouse FcRn immobilised on a CM4 chip (simultaneous binding), pH 7.4, 25 C
mouse FcγRIII [10] = target: T5, mouse FcγRIII; test: as above
[11] = target: T7, human FcRn (soluble human FcRn complexed with β2-microglobulin) (human, UniProt P61769 21-119, limits assumed); test: SPR, antibody captured by Protein L, human FcRn as analyte, pH 7.0, 25 C
T7 construct: also called hFcRn

mouse FcγRI [12] = target: T3, mouse FcγRI; test: SPR, antibody captured by Protein L, mouse FcγR as analyte, pH 7.4, 25 C
mouse FcγRIIb [13] = target: T4, mouse FcγRIIb; test: as above
mouse FcγRIII [14] = target: T5, mouse FcγRIII; test: as above
mouse FcγRIV [15] = target: T6, mouse FcγRIV; test: as above
[16] = target: T7, human FcRn (soluble human FcRn …); test: SPR, antibody captured by Protein L, human FcRn as analyte, pH 7.0, 25 C; remark: listed apart in the source
human FcγRIIb [17] = target: T2, human FcγRIIb; test: SPR, antibody captured by Protein L, human FcγR as analyte, pH 7.4, 25 C
human FcγRIa [18] = target: T1, human FcγRIa; test: as above
human FcγRIIa(R) = target: T8, human FcγRIIa(R) (human, UniProt P12318 36-217); test: as above
T8 construct: also called hFcgRIIa(R); FcγRIIa type R
T8 chain: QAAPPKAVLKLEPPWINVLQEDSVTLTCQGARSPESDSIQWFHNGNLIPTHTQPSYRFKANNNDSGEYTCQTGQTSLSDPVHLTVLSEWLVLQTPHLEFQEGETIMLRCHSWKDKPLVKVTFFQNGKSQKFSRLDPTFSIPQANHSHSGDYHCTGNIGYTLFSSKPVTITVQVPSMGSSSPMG

human FcγRIIa(H) = target: T9, human FcγRIIa(H) (human, UniProt P12318 36-217); test: as above
T9 construct: also called hFcgRIIa(H); FcγRIIa type H
T9 sequence: T8 chain with R133H

T7 sequence (chain, as listed by the source limits assumed, chain 1 of 2): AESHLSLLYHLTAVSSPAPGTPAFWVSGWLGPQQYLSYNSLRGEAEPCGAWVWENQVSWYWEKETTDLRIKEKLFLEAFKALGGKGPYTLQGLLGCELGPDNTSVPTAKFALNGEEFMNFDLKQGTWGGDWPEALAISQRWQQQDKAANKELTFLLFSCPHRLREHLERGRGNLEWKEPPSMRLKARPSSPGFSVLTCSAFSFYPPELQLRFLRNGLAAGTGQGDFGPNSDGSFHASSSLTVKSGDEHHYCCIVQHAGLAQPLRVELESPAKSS
T7 sequence (P61769 21-119 limits assumed, chain 2 of 2): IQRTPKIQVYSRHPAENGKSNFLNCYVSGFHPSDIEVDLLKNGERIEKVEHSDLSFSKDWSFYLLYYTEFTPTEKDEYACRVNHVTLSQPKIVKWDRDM
T1 sequence (P12314 16-292 limits assumed): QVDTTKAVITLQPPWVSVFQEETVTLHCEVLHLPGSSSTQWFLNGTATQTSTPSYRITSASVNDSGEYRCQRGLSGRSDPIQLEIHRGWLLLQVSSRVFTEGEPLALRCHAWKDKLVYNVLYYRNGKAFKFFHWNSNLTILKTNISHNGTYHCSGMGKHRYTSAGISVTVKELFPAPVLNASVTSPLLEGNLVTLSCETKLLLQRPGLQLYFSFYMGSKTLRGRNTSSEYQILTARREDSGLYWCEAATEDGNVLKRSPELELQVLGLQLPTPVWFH

B1: Fv4-IgG1-F157 (VH3-IgG1-F157 and VL3-CK) (antibody)
heavy: QVQLQESGPGLVKPSETLSLTCAVSGHSISHDHAWSWVRQPPGEGLEWIGFISYSGITNYNPSLQGRVTISRDNSKNTLYLQMNSLRAEDTAVYYCARSLARTTAMDYWGEGTLVTVSSASTKGPSVFPLAPSSKSTSGGTAALGCLVKDYFPEPVTVSWNSGALTSGVHTFPAVLQSSGLYSLSSVVTVPSSSLGTQTYICNVNHKPSNTKVDKKVEPKSCDKTHTCPPCPAPELLGGPSVFLFPPKPKDTLMISRTAEVTCVVVDVSHEDPEVKFNWYVDGVEVHNAKTKPREEQYNSTYRVVSVLTPLHQDWLNGKEYKCKVSNKALPAPIEKTISKAKGQPREPQVYTLPPSRDELTKNQVSLTCLVKGFYPSDIAVEWESNGQPENNYKTTPPVLDSDGSFFLYSKLTVDKSRWQQGNVFSCSVLHEALHYHYTQKSLSLSP
light: DIQMTQSPSSLSASVGDSVTITCQASTDISSHLNWYQQKPGKAPELLIYYGSHLLSGVPSRFSGSGSGTDFTFTISSLEAEDAATYYCGQGNRLPYTFGQGTKVEIERTVAAPSVFIFPPSDEQLKSGTASVVCLLNNFYPREAKVQWKVDNALQSGNSQESVTEQDSKDSTYSLSSTLTLSKADYEKHKVYACEVTHQGLSSPVTKSFNRGEC
notes: copies: 2 + 2
binding result (human FcγRIa [1]): binds | binding result (human FcγRIIb [2]): binds | binding result (mouse FcγRI [3]): binds | binding result (mouse FcγRIIb [4]): binds | binding result (mouse FcγRIII [5]): binds | binding result (mouse FcγRIV [6]): binds

B2: mPM1-mIgG1-mF3 (mPM1H-mIgG1-mF3 and mPM1L-mk1) (antibody)
heavy: DVQLQESGPVLVKPSQSLSLTCTVTGYSITSDHAWSWIRQFPGNKLEWMGYISYSGITTYNPSLKSRISITRDTSKNQFFLQLNSVTTGDTSTYYCARSLARTTAMDYWGQGTSVTVSSAKTTPPSVYPLAPGSAAQTNSMVTLGCLVKGYFPEPVTVTWNSGSLSSGVHTFPAVLQSDLYTLSSSVTVPSSTWPSETVTCNVAHPASSTKVDKKIVPRDCGCKPCICTVPEVSSVFIFPPKPKDVLYITLEPKVTCVVVDISKDDPEVQFSWFVDDVEVHTAQTQPREEQFNSTFRSVSELPIMHQDWLNGKEFKCRVNSAAFPAPIEKTISKTKGRPKAPQVYTIPPPKEQMAKDKVSLTCMITDFFPEDITVEWQWNGQPAENYKNTQPIMDTDGSYFVYSKLNVQKSNWEAGNTFTCSVLHEGLKFHHTEKSLSHSPGK
light: DIQMTQTTSSLSASLGDRVTISCRASQDISSYLNWYQQKPDGTIKLLIYYTSRLHSGVPSRFSGSGSGTDYSLTINNLEQEDIATYFCQQGNTLPYTFGGGTKLEIKRADAAPTVSIFPPSSEQLTSGGASVVCFLNNFYPKDINVKWKIDGSERQNGVLNSWTDQDSKDSTYSMSSTLTLTKDEYERHNSYTCEATHKTSTSPIVKSFNRNEC
notes: copies: 2 + 2
binding result (mouse FcγRI [7]): no binding | binding result (mouse FcγRIV [8]): no binding | binding result (mouse FcγRIIb [9]): binds | binding result (mouse FcγRIII [10]): binds

B3: VH3/L(WT)-IgG1-F21 (VH3-IgG1-F21 heavy chain, L(WT)-CK light chain) (antibody)
heavy: B1 heavy with M254Y, A259P, L430M
light: not shown
notes: M252Y/V308P/N434Y; copies: 2 + 2
Kd [11]: 30 nM | BINDING AMOUNT (RU) (mouse FcγRI [12]): 315 RU | BINDING AMOUNT (RU) (mouse FcγRIIb [13]): 112 RU | BINDING AMOUNT (RU) (mouse FcγRIII [14]): 371 RU | BINDING AMOUNT (RU) (mouse FcγRIV [15]): 242 RU | Kd [16]: 30 nM | BINDING AMOUNT (RU) (human FcγRIIb [17]): 63.4 RU | BINDING AMOUNT (RU) (human FcγRIa [18]): 403 RU | BINDING AMOUNT (RU) (human FcγRIIa(R)): 145 RU | BINDING AMOUNT (RU) (human FcγRIIa(H)): 154 RU
